Laboratory results from publication PMC5052650.

Biological target: ARTD2 N+WGR fragment (human)
Assay: SAXS; proteins without DNA; measured without chromatography at three different concentrations; MW from Porod volume divided by 1.7

Chain of ARTD2 N+WGR fragment (domain or fragment) (Q9UGN5 99-206): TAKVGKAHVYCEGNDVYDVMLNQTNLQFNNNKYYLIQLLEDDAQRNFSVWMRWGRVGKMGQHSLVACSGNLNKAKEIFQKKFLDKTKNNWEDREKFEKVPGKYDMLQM

stoichiometry N: 2
Substance: ARTD2 N+WGR fragment (domain or fragment)
